# Experiment: label from the status in PepcDB records
# 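Also: failed if final PepcDB status was selected cloned or expressed and not failed if soluble or beyond.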
row,Sequence,protein production
1,MVQFQNTLIKFHALSFKNANLIYNAKLNKTCYKENSNTIILRIKMLTQEDVLNALKTIIYPNFEKDIVSFGFVKNITLHDDQLGLLIEIPSSSEETSAILRENISKAMQEKGVKALNLDIKTPPKPQAPKPTTKNLAKNIKHVVMISSGKGGVGKSTTSVNLSIALANLNQKVGLLDADVYGPNIPRMMGLQSADVIMDPSGKKLIPLKAFGVSVMSMGLLYDEGQSLIWRGPMLMRAIEQMLSDIIWGDLDVLVVDMPPGTGDAQLTLAQAVPLSAGITVTTPQIVSLDDAKRSLDMFKKLHIPIAGIVENMGSFVCEHCKKESEIFGSNSMSELLEAYHTQILAKLPLEPKVRLGGDRGEPIVISHPNSVSAKIFEKMAQDLSAFLERVKKEKLADNKDIQPTQTHACSH,failed
2,MVQHHNLYELSPMDTGWTICVMVLRINKKFLNPNAFELRFVLDDEWDTQIEATIRPRFSPFYFDRIEKNQWKTISTFLVRPNCEPIRTTPHEFRILFMDHTIITSSTS,failed
3,MVQNLSREQYGFVIWVVGNNSIPEEIRSLTTFLSWENLGTCLLLDPNAHVGSLCCSHRRVLLVEEFLGSYLSWGILDFDLFVQSNALNGGVIDMLRRFGVEVHISQPPTKTKKRSNANRKGFPDIELGKAMHSRALERNPSPMLLISSDSRLHTDVSHITSLAFEIILFHTKKAPKDLKDLATKRVLWFDGVSKLTEVRI,failed
4,MVQSLAKQVIHQAVEVNAQDIYIIPKGDCYELYMRIDDERRFIDVFEFNRMASLISHFKFVAGMNVGEKRRSQLGSCDYELSEGRLVSLRLSSVGDYRGQESLVIRILY,failed
5,MVQVPPPPPTGFADHASAAEDREAGDGPAPSIAEGLSAALFQSVVEALPVGTALLRDGVIVHANATLAGQIGETIDTLIGSPLTSYLTPADALAVQKVVEGAIALHGGVPVRRIAHIRHISGSERVYSLRFSPLDNGPHPLLVVITRDMTAQVAAENALRAAEGKYRAIFENAVEGIYQSTPDGTYLDVNPALARIYGYASPAELIAHFTDIASQLYVDGTKRGEFQRLMRETGEVRDFTAEVWRCDGHTIWITENARCVRGPDNEVLYYEGTVEDITAQRQSQETMRLLGKVFTSIAEGIVLLERDLTVRTVNPAFEAMTGLLRQDMEGRPARLFASGLHENDFLATVAAEVDRAGLWRGEIWGERREGPPYSGEMTVTAVRTRAGETTHYVAAITDITKRKRDEEHIRFQANFDMLTHLPNRHLIMDRLEQAMHQAQRTGRQVCVMFLDLDRFKQINDSYGHSAGDEVLKLTARRLRNCVRISDSVGRLGGDEFIVILSNVEDQHAGAYIAEKILYSLSEPFPIGGTEVFCIPSVGITYFPDHGETAPDLLRNADVAMYHAKQGGERRYAIFTPDMARRSLALLTMESDLRHALARDEFELHFQPKVRADLTLIGAEALIRWRHPEKGLINPGDFIPLAEESGLILPIGRWTLREACDRVMSWRAEGLTIPSVSVNVSPRQFQDQTLVETVRQILVETGLEPEALDLEITETVMTGDVEHAVGTLRALKDLGVTLSIDDFGTGYSSLNYLKTFPIDTLKIDQTFVRDVLHSGKDAAIVSTIIALARNLGFSVVAEGVEEIEQAEFLGSRDCQNFQGFLYSRPLPPAEFTTFLRTAKLETATPPDLVPSIAPGP,failed
6,MVRANKRNEALRIESALLNKIAMLGTEKTAEAVGVDKSQISRWKRDWIPKFSMLLAVLEWGVVDDDMARLARQVAAILTNKKRPAATERSEQIQMEF,not failed
7,MVRGDDQLNGLQGGKRALDILCVATERTVSAFAYEEIGETSTEGDKRRERLRRLRRLINYSLSTTMNSSLSKRLKIDECKNQDPEQNPNRVASSPSSCHLESKRPQKVVSNKPVRNRKPVIVTDEDRTPTEWLIDVMREVNGMDAKLIFVKVLPNSDVDELQTRLMMPWKQILDMDFLNEEELEKIDRHHKKISASDKGADVIVVNSKGLQRKLKLKRWDMTSTSNYVLGLGWNKVVTDNILQRGTRLRIWSFHSPDMLFFAFVLSDPDPAPTECLNLLAKLCEETTCLEALQEANRMSSLVSDTELDLELRL,failed
